The text below walks through data of patent publication US20120122128A1.

In test [1] the target is T1, SNAP-25 peptide comprising amino acids 134-197 of SEQ ID NO: 5 (human). The experiment in a line: SPR (BIAcore 3000), peptide amine-coupled to CM5 chip, antibody as analyte, 1:1 fit.
Test [2] has as its target T1, SNAP-25 peptide comprising amino acids …. The test is described as follows: SPR, comparison of the KD values of Table 9. Background: SPR reads the build-up and loss of mass on a sensor chip optically.
Test [3] addresses SNAP-25 peptide comprising amino acids 134-197 of SEQ ID NO: 5 (human). The experiment in a line: SPR (BIAcore 3000), peptide amine-coupled to CM5 chip, antibody as analyte, 1:1 fit. The source holds these as a separate data set.
Test [4] addresses T1, SNAP-25 peptide comprising amino acids …. The experiment in a line: SPR (BIAcore 3000), peptide amine-coupled to CM5 chip, antibody as analyte, 1:1 fit, first of two runs.
The target is the same in test [5]. The test is described as follows: SPR (BIAcore 3000), peptide amine-coupled to CM5 chip, antibody as analyte, 1:1 fit, second independent run on another chip.
Test [6] has the same target. The test is described as follows: SPR, comparison of the Kd values of Table 9.

Positions count from the first letter of the chain named.

B1: α-SNAP-25 monoclonal antibody 1D3B8 (antibody, V domains shown)
VH: VKLQESGAELVKPGASVKISCKASGYIFTDHALHWVRQKPEQGLEWIGYIFPGNGNIEYNEKFKGKATLTADKSSSTAYMQLNSLTSGDSAMYFCKKMDYWGQGTTVTVSS
VL: DVLMTQTPLSLPVSLGDQASISCRSSQSIVHSNGNTYLEWYLQKPGQSPKLLIYKVSNRFSGVPDRFSGSGSGTDFTLKISRVEAEDLGVYYCFQGSHVPPTFGAGTKLELKR
B1: in test [1], the Kd – broadly, a measure of binding affinity in units of concentration – is 0.05 nM; the off-rate constant (koff) (usually the rate constant with which the complex falls apart) worked out at 5.78e-05 s⁻¹; the kon (commonly the rate constant with which the complex forms) worked out at 1.06e+06 M⁻¹ s⁻¹. In test [2], the fold difference of equilibrium disassociation constant against MC-6050 and MC-6053 came to 10 fold.

B2: α-SNAP-25 monoclonal antibody 2C9B10 (antibody, V domains shown)
VH: B1 VH with I27T, A32S, L33I, R37K, E41G, I50L, I57F, Q81H, G88E, M92V
VL: DIQMTQSPASLSASVGETVTITCRTTENIYSYFVWSQQRQGKSPQLRVYNAKSLAEGVPSSFNVSVSGTQFSLKINSLQPEDFGTYHCQHHYGTPYTFGGGTRLEIRR
Take B2: in test [3], the Kd was determined as 27.1 nM, the koff was 0.000311 s⁻¹ and the kon stood at 11500 M⁻¹ s⁻¹.

B3: α-SNAP-25 monoclonal antibody 3C1A5 (antibody, V domains shown)
VH: VKLQESGAELVKPGASVKISCKASGYTFTDHSIHWVKQKPGQGLEWIGYLFPGNGNFEYNEKFKGKATLTADKSSSTVYMYLNSLTSEDSAVYFCKRMGYWGQGTTVTVSS
VL: DIKMTQSPSSMYASLGERVTITCKASQDIKSYLSWYQQKPWKSPKTLIYYATSLADGVPSRFSGSGSGQDYSLTISSLESDDTATYYCLQHGESPFTFGSGTKLEIKR
In the case of B3, in test [1], the Kd stood at 1.33 nM, the koff came to 0.000288 s⁻¹ and the kon is 217000 M⁻¹ s⁻¹.

B4: α-SNAP-25 monoclonal antibody 2E2A6 (antibody)
chain 1: QVQLQQSDAELVKPGASVKISCRASGYTFTDHSIHWVKQQPGQGLEWIGYIFPGNGNIEYNDKFKGKATLTADKSSGTAYMQLNSLTSEDSAVYFCKRMGYWGQGTSVTVSS
chain 2: DVLMTQTPLTLSVTIGQPASISCKSSQSLLYTNGKTYLTWLFQRPGQSPKRLIYLVSELDSGVPDRFSGSGSGTDFTLEITRVEAEDLGVYYCLQSAHFPFTFGSGTKLEIKR
Regarding B4, in test [4], the Kd amounted to 0.09 nM, the koff amounted to 0.000153 s⁻¹ and the kon was 1.7e+06 M⁻¹ s⁻¹. In test [5], this molecule returned a Kd of 0.405 nM, a koff of 6.74e-05 s⁻¹ and a kon of 166000 M⁻¹ s⁻¹. Moreover, the fold slower off rate against MC-6050 and MC-6053 in test [6] was more than 1 fold.
